Results from paper PMC8710044 (Biochemical pharmacology, 2021).

Assays:
CYP2C8 [1] = target: T1, CYP2C8 (Homo sapiens, UniProt P10632); test: Steady-state kinetics of overall NSAID metabolism; format: in vitro ADME
T1 sequence (P10632 1-490): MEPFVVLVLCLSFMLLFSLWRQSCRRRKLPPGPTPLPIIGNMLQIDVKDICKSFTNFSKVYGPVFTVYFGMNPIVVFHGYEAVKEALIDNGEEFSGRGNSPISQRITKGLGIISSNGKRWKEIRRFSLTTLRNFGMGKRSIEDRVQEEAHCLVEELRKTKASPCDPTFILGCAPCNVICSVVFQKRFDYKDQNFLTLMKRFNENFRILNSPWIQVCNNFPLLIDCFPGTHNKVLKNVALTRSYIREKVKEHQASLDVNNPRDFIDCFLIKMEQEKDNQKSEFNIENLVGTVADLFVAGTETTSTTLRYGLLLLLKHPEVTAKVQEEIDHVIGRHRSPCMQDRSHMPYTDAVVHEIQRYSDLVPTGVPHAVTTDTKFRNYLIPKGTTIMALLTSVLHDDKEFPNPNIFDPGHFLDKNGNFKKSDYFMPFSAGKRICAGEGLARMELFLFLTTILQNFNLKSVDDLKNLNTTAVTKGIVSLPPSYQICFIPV

CYP2C19 [2] = target: T2, CYP2C19 (Homo sapiens, UniProt P33261); test: Steady-state kinetics of overall NSAID metabolism; format: in vitro ADME
CYP3A4 [3] = target: T3, CYP3A4 (Homo sapiens, UniProt P08684); test: Steady-state kinetics of overall NSAID metabolism; format: in vitro ADME
T3 sequence (P08684 whole entry): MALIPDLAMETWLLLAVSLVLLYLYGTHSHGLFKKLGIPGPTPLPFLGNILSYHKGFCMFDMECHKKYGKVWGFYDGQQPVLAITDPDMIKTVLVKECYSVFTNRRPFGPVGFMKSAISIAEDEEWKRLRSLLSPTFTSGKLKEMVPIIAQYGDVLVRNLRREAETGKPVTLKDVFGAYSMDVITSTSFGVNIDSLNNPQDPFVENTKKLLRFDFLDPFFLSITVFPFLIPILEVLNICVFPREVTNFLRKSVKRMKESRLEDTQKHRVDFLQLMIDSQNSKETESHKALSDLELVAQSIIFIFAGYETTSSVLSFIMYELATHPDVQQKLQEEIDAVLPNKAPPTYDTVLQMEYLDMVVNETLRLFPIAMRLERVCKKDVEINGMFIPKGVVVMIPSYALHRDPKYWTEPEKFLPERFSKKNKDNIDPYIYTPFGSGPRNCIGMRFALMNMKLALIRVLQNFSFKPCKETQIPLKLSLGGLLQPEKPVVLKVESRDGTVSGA

CYP2C8 [4] = target: T1, CYP2C8; test: Relative CYP contribution to hepatic bioactivation and detoxification, CYP2C8; format: in vitro ADME
CYP2C9 = CYP2C9 (Homo sapiens, UniProt P11712); test: Relative CYP contribution to hepatic bioactivation and detoxification, CYP2C9; format: in vitro ADME
Chain of CYP2C9 (P11712 whole entry): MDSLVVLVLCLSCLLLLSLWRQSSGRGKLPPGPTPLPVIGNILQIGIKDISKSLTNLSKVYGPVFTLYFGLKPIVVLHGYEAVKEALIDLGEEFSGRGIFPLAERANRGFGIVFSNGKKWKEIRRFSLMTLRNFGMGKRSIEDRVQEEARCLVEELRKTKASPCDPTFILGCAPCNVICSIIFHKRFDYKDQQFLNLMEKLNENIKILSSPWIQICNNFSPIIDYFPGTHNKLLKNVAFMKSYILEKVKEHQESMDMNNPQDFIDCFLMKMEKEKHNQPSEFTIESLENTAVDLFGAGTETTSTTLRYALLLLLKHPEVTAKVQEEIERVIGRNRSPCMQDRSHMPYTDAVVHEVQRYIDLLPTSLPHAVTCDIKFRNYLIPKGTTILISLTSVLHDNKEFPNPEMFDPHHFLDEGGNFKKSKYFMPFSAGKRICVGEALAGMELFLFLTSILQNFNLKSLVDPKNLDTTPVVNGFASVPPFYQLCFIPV

CYP2C19 [5] = target: T2, CYP2C19; test: Relative CYP contribution to hepatic bioactivation and detoxification, CYP2C19; format: in vitro ADME
CYP3A4 [6] = target: T3, CYP3A4; test: Relative CYP contribution to hepatic bioactivation and detoxification, CYP3A4; format: in vitro ADME
[7] = substrate: Cc1c(Cl)cccc1Nc1ccccc1C(=O)O; test: cells, lysate or membranes named; details: 95% CI in parentheses, pH 7.4
[8] = substrate: Cc1ccc(Cl)c(Nc2ccccc2C(=O)O)c1Cl; test: cells, lysate or membranes named; details: 95% CI in parentheses, pH 7.4
[9] = substrate: Cc1ccc(Nc2c(F)cccc2Cl)c(CC(=O)O)c1; test: cells, lysate or membranes named; details: 95% CI in parentheses, pH 7.4
[10] = substrate: Cc1cccc(Nc2ccccc2C(=O)O)c1C; test: Steady-state bioactivation kinetics; format: in vitro ADME, human; details: other: CYP2C19, path 1, 2, 95% CI in parentheses, pH 7.4
[11] = substrate: O=C(O)COC(=O)Cc1ccccc1Nc1c(Cl)cccc1Cl; test: Steady-state bioactivation kinetics; format: in vitro ADME, human; details: other: CYP2C19, 95% CI in parentheses, pH 7.4
[12] = substrate: O=C(O)c1ccccc1Nc1cccc(C(F)(F)F)c1; test: Steady-state bioactivation kinetics; format: in vitro ADME, human; details: other: CYP2C19; metabolite M2/M4, path 1, 2; 95% CI in parentheses; pH 7.4
[13] = substrate: Cc1cccc(Nc2ccccc2C(=O)O)c1C; test: Steady-state kinetics of overall NSAID metabolism; format: in vitro ADME, human; details: other: overall metabolism (depletion) by CYP2C19; 95% CI in parentheses; pH 7.4
[14] = substrate: O=C(O)COC(=O)Cc1ccccc1Nc1c(Cl)cccc1Cl; test: Steady-state kinetics of overall NSAID metabolism; format: in vitro ADME, human; details: other: overall metabolism (depletion) by CYP2C19; 95% CI in parentheses; pH 7.4
[15] = substrate: O=C(O)c1ccccc1Nc1cccc(C(F)(F)F)c1; test: Steady-state kinetics of overall NSAID metabolism; format: in vitro ADME, human; details: other: overall metabolism (depletion) by CYP2C19; 95% CI in parentheses; pH 7.4
[16] = other: CYP2C19, metabolite M2/M4a, path 1, 2
[17] = other: CYP2C19, metabolite M2/M4b, path 1, 2
[18] = other: overall metabolism (depletion) by CYP2C19
[19] = other: CYP2C19, metabolite M2/M4, path 1, 2
[20] = other: CYP2C19, metabolite M6, path 3
[21] = other: CYP2C19, metabolite M6a, path 3
[22] = other: CYP2C19, metabolite M6b, path 3

Molecule: O=C(O)Cc1ccccc1Nc1c(Cl)cccc1Cl [DIC, diclofenac]
- Km at 60 min (CYP2C8 [1]; human, recombinant CYP2C8 Supersomes, pH 7.4): 83 µM
- Vmax (CYP2C8 [1]; overall metabolism (depletion) by CYP2C8, 95% CI in parentheses): 1240 (1170–1320) pmol/min/nmol protein
- Km at 60 min (CYP2C19 [2]; human, recombinant CYP2C19 Supersomes, pH 7.4): 70.5 µM
- Vmax (CYP2C19 [2]; overall metabolism (depletion) by CYP2C19, 95% CI in parentheses): 1940 (1840–2040) pmol/min/nmol protein
- Km at 60 min (CYP3A4 [3]; human, recombinant CYP3A4 Supersomes, pH 7.4): 130 µM
- Vmax (CYP3A4 [3]; overall metabolism (depletion) by CYP3A4, 95% CI in parentheses): 5480 (5090–5930) pmol/min/nmol protein
- Bioactivation Percent (CYP2C8 [4]; CYP2C8 contribution to total CLbioact of the NSAID): 0%
- Detoxification Percent (CYP2C8 [4]; CYP2C8 contribution to total CLdetox of the NSAID): 6.5%
- Bioactivation Percent (CYP2C9; CYP2C9 contribution to total CLbioact of the NSAID): 97.9%
- Detoxification Percent (CYP2C9; CYP2C9 contribution to total CLdetox of the NSAID): 12.0%
- Bioactivation Percent (CYP2C19 [5]; CYP2C19 contribution to total CLbioact of the NSAID): 1.0%
- Detoxification Percent (CYP2C19 [5]; CYP2C19 contribution to total CLdetox of the NSAID): 5.5%
- Bioactivation Percent (CYP3A4 [6]; CYP3A4 contribution to total CLbioact of the NSAID): 1.1%
- Detoxification Percent (CYP3A4 [6]; CYP3A4 contribution to total CLdetox of the NSAID): 75.9%

B1: CYP2C19 (Homo sapiens) (protein)
chain: MDPFVVLVLCLSCLLLLSIWRQSSGRGKLPPGPTPLPVIGNILQIDIKDVSKSLTNLSKIYGPVFTLYFGLERMVVLHGYEVVKEALIDLGEEFSGRGHFPLAERANRGFGIVFSNGKRWKEIRRFSLMTLRNFGMGKRSIEDRVQEEARCLVEELRKTKASPCDPTFILGCAPCNVICSIIFQKRFDYKDQQFLNLMEKLNENIRIVSTPWIQICNNFPTIIDYFPGTHNKLLKNLAFMESDILEKVKEHQESMDINNPRDFIDCFLIKMEKEKQNQQSEFTIENLVITAADLLGAGTETTSTTLRYALLLLLKHPEVTAKVQEEIERVIGRNRSPCMQDRGHMPYTDAVVHEVQRYIDLIPTSLPHAVTCDVKFRNYLIPKGTTILTSLTSVLHDNKEFPNPEMFDPRHFLDEGGNFKKSNYFMPFSAGKRICVGEGLARMELFLFLTFILQNFNLKSLIDPKDLDTTPVVNGFASVPPFYQLCFIPV
- Km [7, 16]: 7.4 µM
- kcat [7, 16]: 2.6 (2.5–2.7) pmol/min/nmol protein
- Km [7, 17]: 11 µM
- kcat [7, 17]: 3.9 (3.8–4.0) pmol/min/nmol protein
- Km [7, 18]: 110 (94–130) μM
- kcat [7, 18]: 2070 (1950–2210) pmol/min/nmol protein
- Km [8, 19]: 5.8 µM
- kcat [8, 19]: 3.1 (3.0–3.2) pmol/min/nmol protein
- Km [8, 20]: 18.9 µM
- kcat [8, 20]: 64.2 (61.2–67.4) pmol/min/nmol protein
- kcat ([8]; other: CYP2C19, metabolite M9, path 4): 6.1 (5.7–6.4) pmol/min/nmol protein
- Km [8, 18]: 160 (130–190) μM
- kcat [8, 18]: 2400 (2210–2610) pmol/min/nmol protein
- Km [9, 19]: 36.8 µM
- kcat [9, 19]: 2.5 (2.4–2.7) pmol/min/nmol protein
- Km [9, 21]: 47.6 µM
- kcat [9, 21]: 1.8 (1.7–2.0) pmol/min/nmol protein
- Km [9, 22]: 115 µM
- kcat [9, 22]: 2.4 (2.2–2.6) pmol/min/nmol protein
- Km [9, 18]: 77.2 (64–93) μM
- kcat [9, 18]: 2610 (2450–2790) pmol/min/nmol protein
- Km ([10]; metabolite M2/M4a): 10.8 µM
- kcat ([10]; metabolite M2/M4a): 2.0 (1.9–2.1) pmol/min/nmol protein
- Km ([10]; metabolite M2/M4b): 13.6 µM
- kcat ([10]; metabolite M2/M4b): 1.5 (1.4–1.6) pmol/min/nmol protein
- Km ([11]; metabolite M2/M4, path 1, 2): 18.8 µM
- kcat ([11]; metabolite M2/M4, path 1, 2): 4.4 (4.2–4.7) pmol/min/nmol protein
- Km ([11]; metabolite M6, path 3): 74.4 µM
- kcat ([11]; metabolite M6, path 3): 5.6 (5.2–6.1) pmol/min/nmol protein
- Km ([11]; metabolite M9, path 4): 8.9 µM
- kcat ([11]; metabolite M9, path 4): 4.1 (3.9–4.4) pmol/min/nmol protein
- Km [12]: 28.5 µM
- kcat [12]: 7.7 (7.4–8.1) pmol/min/nmol protein
- Km [13]: 220 (180–260) μM
- kcat [13]: 3060 (2830–3320) pmol/min/nmol protein
- Km [14]: 380 (320–460) μM
- kcat [14]: 3050 (2760–3410) pmol/min/nmol protein
- Km [15]: 150 (120–180) μM
- kcat [15]: 2500 (2310–2730) pmol/min/nmol protein
